Key:
[1] = target: T1, ETV1 immunogenic peptide P1 (human); assay: SPR (Biacore T200), antibody amine-coupled on CM5 chip, peptide as analyte, 1:1 binding fit
T1 construct: 27 amino acid peptide, ETV1 residues 212-238; also called immunogen peptide; ETV1 P1 peptide
Experimental: Affinity measurements using SPRi was performed using a Biacore T200 instrument (Cytiva, Marlborough, MA) by Creative Biolabs (Shirley, NY, USA). The ETV1 (29E4) antibody was directly immobilized onto a CM5 sensor chip surface using an amine coupling kit (Cytiva). Before immobilization, the CM5 sensor surface was activated using a mixture of 400 mM 1-ethyl-3-(3-dimethylaminopropyl) carbodiimide (EDC) and 100 mM N-hydroxysuccinimide (NHS). The ETV1 antibody was diluted to 40 μg/ml in immobilization buffer (10 mM NaAc, pH 4.5) and injected into Fc4 sample channel at a flow rate of 10 μL/min. The amount of antibody (ligand) immobilized was about 5,000 RU. The chip was deactivated by 1 M Ethanolamine hydrochloride-NaOH (GE Healthcare Life Sciences, Piscataway, NJ) at a flow rate of 10 μL/min for 420 seconds. The reference Fc3 channel underwent similar procedures but without injecting the ligand. […] Different concentrations of the […] were then injected into the cell over both channels at a flow rate of 30 μL/min, with a contact time of 90 seconds, followed by a dissociation time of 210 seconds. The surface was regenerated with 10 mM Glycine-HCl, pH 1.5 after each injection to prepare for the injection of the next antibody dilution sample. Data analysis was performed on the Biacore T200 computer and with the Biacore T200 evaluation software, using the steady-state affinity model or 1:1 binding model.
The binding of the 29E4 mAb to its epitope sequence was further analyzed by using SPRi. After immobilizing the ETV1 mAb onto a matrix of dextran on the surface of a Sensor Chip to a level of 5000 response units (RU) with standard amine coupling (FIG. 4, panel A), different concentrations of the serially diluted peptide were then injected as an analyte into the cell over both channels for 300 seconds (contact time of 90 seconds, followed by a dissociation time of 210 seconds) to give a response of about 180 RU. The different binding affinity of each antibody dilution is depicted in the overlay plot of SPR sensorgrams and fitting curves (FIG. 4, panel B).

P42 = target: T2, P42; assay: ELISA: 1 µg peptide coated per well, 29E4 at 20 ng/mL, HRP goat anti-rabbit Ig 1:16,000, ABS 450 nm, duplicates [CONT. 1]
T2 construct: N-terminal truncation of P1
T2 peptide: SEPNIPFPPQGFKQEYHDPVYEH

P50 = target: T3, P50; assay: as above
T3 construct: C-terminal truncation of P1
T3 peptide: QRQMSEPNIPFPP

P49 = target: T4, P49; assay: as above
T4 construct: C-terminal truncation of P1
T4 peptide: QRQMSEPNIPFPPQ

P48 = target: T5, P48; assay: as above
T5 construct: C-terminal truncation of P1
T5 peptide: QRQMSEPNIPFPPQG

P36 = target: T6, P36; assay: as above
T6 construct: C-terminal truncation of P1
T6 peptide: QRQMSEPNIPFPPQGFKQE

P35 = target: T7, P35; assay: as above
T7 construct: C-terminal truncation of P1
T7 peptide: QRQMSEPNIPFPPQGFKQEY

P34 = target: T8, P34; assay: as above
T8 construct: C-terminal truncation of P1
T8 peptide: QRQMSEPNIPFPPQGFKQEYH

P33 = target: T9, P33; assay: as above
T9 construct: C-terminal truncation of P1
T9 peptide: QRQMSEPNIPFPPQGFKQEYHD

P32 = target: T10, P32; assay: as above
T10 construct: C-terminal truncation of P1
T10 peptide: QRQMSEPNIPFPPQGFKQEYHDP

P31 = target: T11, P31; assay: as above
T11 construct: C-terminal truncation of P1
T11 peptide: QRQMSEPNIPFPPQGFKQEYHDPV

P30 = target: T12, P30; assay: as above
T12 construct: C-terminal truncation of P1

P29 = target: T13, P29; assay: as above
T13 construct: C-terminal truncation of P1

P39 = target: T14, P39; assay: as above
T14 construct: N-terminal truncation of P1

peptide P40 (…) = target: T15, peptide P40 (…) (human); assay: as above
T15 construct: N-terminal truncation of the immunogenic peptide P1

[2] = target: T16, peptide P38 (QRQMSEPNIPFPPQGFK) (human); assay: as above
T16 construct: C-terminal truncation of the immunogenic peptide P1
T16 peptide: QRQMSEPNIPFPPQGFK

T1 sequence (peptide, as listed by the source): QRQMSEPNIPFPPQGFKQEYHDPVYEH

B1: ETV1 rabbit monoclonal antibody (29E4) (antibody, V domains shown)
VH: QELEESGGDLVKPGASLTLTCTASGFFFSAENHICWVRQAPGKGLEWIGCVYIGSYVGGSGDPYYASWAKGRFTISKTSSTTVTLQMSSLTAADTATYFCARDLGSLWGPGTLVTVSS
VL: DVVMTQTASSVSAAVGGTVTIACQSSQSVYDNNNLAWFQQKPGQPPKRLIYSASTLASGVSSRFKGSGYGTQFTLTISDVQCDDAATYYCVGAFSGYIFVFGGGTEVVVK
notes: constant regions are not; also called 29E4 mAb; ETV1 29E4 mAb
For B1, the Kd [1] was 0.479 nM, the koff [1] was 0.000149 s⁻¹ and the kon [1] was 311000 M⁻¹ s⁻¹. B1: binds (P42); binds (P50); binds (P49). B1: binds (P48); binds (P36); binds (P35). B1: binds (P34); binds (P33); binds (P32). B1: binds (P31); binds (P30); binds (P29). B1: binds (P39); binds (peptide P40 (…)); binds [2].

Source: US20260227403A1 (HENRY M JACKSON FOUNDATION FOR THE ADVANCEMENT OF MILITARY …, published 2026)
